Test results: patent US20240058478A1, “FOLATE RECEPTOR-TARGETED CONJUGATES, COMPOSITIONS, AND DELIVERY TO THE CENTRAL NERVOUS SYSTEM” (PURDUE RESEARCH FOUNDATION, priority 2021, published 2024)

Assays:
[1] = tested on: folate receptor-positive cells; test: FRES uptake in SCI: NIR imaging of transverse spinal cord sections, conjugate vs unconjugated dye; format: in vivo, Sprague Dawley rats; details: for NIR signal in the spinal cords: SCI rats, injected day 7 after injury, imaged day 8, conjugate vs unconjugated NIR dye
Experimental: Adult male Sprague Dawley rats were given a moderate grade SCI. The rats were injected with OTL38 or unconjugated NIR dye on day 7 after injury. On day 8, the spinal cords were removed and imaged for NIR signal.
FIGS. 11A-11B show transverse spinal cord sections of the rostral portions (FIG. 11A) and epicenters (FIG. 11B) of a rat with SCI and injected seven days after injury with OTL38. […] The results are shown in FIG. 11D, which is a bar graph of mean fluorescence intensity vs. rostral portion and epicenter showing OTL38 uptake (students t-test, **p<0.01).

[2] = tested on: folate receptor-positive cells; test: FRES uptake in spinal cord contusion injury (SCI): ex vivo NIR imaging of spinal cords; parameters: species or system Sprague Dawley rats; details: SCI rats
Experimental: Adult male Sprague Dawley rats were given a moderate grade spinal cord contusion injury (SCI). The rats were injected with OTL38 or simultaneously with OTL38 and Fol-Glu on day 7 after injury. On day 8, the spinal cords were removed and imaged for NIR signal.
NR signal is represented by green and red colors, with red showing areas of high intensity. Blue arrows point to the epicenter of the SCI. “R” indicates the rostral portion of the spinal cord.

[3] = Persistence of folate conjugate: NIR signal in blood and CSF over time; format: in vivo, Sprague Dawley rats; details: rats
Experimental: Adult male Sprague Dawley rats were injected with OTL38. Blood and cerebrospinal fluid (CSF) were then extracted at the same time at various timepoints and imaged. […] The data also indicate that the exposure of the CNS to the payload is extended over time.
FIG. 9 is a graph of mean fluorescent intensity vs. time for CSF and blood. n=1-4 rats/timepoint.

[4] = tested on: rats with controlled cortical impact (CCI) injuries; test: FRES uptake in controlled cortical impact (CCI) injury: NIR imaging of the cortex surface; format: in vivo, Sprague Dawley rats; details: intravenous injection ten days after CCI injury, imaged next day
Text: Adult male Sprague Dawley rats were given moderate grade controlled cortical impact (CCI) injuries. This injury represents concussion of the brain cortex, which is a more common injury in humans than laceration of the brain cortex. The impactor was circular and 6 mm in diameter. The rats were intravenously injected with OTL38 ten days after injury. The next day the rats were sacrificed, and the surfaces of the cortexes were imaged. […] The yellow arrow points to signal on the dorsal surface of the spinal cord.

[5] = tested on: rats with cortex laceration of the left hemisphere; test: FRES uptake in cortex laceration: NIR imaging of the cortex; format: in vivo, Sprague Dawley rats; details: injected seven days after cortex laceration, brains removed next day
Experimental: Adult male Sprague Dawley rats were given brain injuries by cortex laceration of the left hemisphere using a small ophthalmic knife. Seven days after injury, the rats were injected with OTL38. The brains were removed the next day, and the cortexes were imaged.
FIGS. 13A-13B show a precise surface laceration injury in the cortex of the left hemisphere of the brain. FIG. 13A is a cartoon indicating the area of injury (blue circle) and the area imaged (blue rectangle). […] The right hemisphere cortex served as an internal control (uninjured, no signal).
Choroid plexus cells in the ventricles produce CSF and are the site of FRES release into the subarachnoid space, where the brain and spinal cord continue to be perfused. The 4th ventricle and lateral recess contain choroid plexus cells and are the site of outflow for newly produced CSF. The intense signal below the cerebellum (blue arrow) is a result of concentrated choroid plexus cells and FRES/new CSF production and entry for CNS perfusion. […] The opposite hemisphere represents an internal control with no areas of enhanced signal.

[6] = target: T1, folate receptors on cells of the choroid plexus (Mus musculus, UniProt P35846); test: Transport of folate conjugates across blood-cerebrospinal fluid barrier: NIR imaging of brain/choroid plexus; format: in vivo, B6 male mice
T1 construct: the uptake of OTL38 is mediated by folate receptors on cells of the choroid plexus; from tissue; host or cells: choroid plexus of live B6 male mice (in vivo, ex vivo NIR imaging of brain)
T1 sequence (P35846 25-232): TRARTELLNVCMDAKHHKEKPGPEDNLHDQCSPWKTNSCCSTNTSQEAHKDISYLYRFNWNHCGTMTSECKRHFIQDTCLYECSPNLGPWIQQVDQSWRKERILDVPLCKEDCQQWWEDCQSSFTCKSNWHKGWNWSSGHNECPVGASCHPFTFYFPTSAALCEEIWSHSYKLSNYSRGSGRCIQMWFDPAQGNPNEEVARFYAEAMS
Text: Corresponding ventral side of the spinal cords are shown to the left of each brain. […] Green fluorescence indicates OTL38 signal. […] In the middle column (OTL38+Fol-Glu, n=4) minimal uptake is observed. In the far-right corner, Control (non-injected, n=1), no signal is observed. FIG. 9 is a graph of mean fluorescent intensity vs. time for CSF and blood. n=1-4 rats/timepoint.
B6 male mice were given an intravenous tail injection of a folate-fluorescent near infrared (NIR) dye conjugate (i.e., OTL38) and imaged. […] Corresponding ventral side of the spinal cords are shown to the left of each brain. […] Green fluorescence indicates OTL38 signal. […] In the middle column (OTL38+Fol-Glu, n=4) minimal uptake is observed. In the far right corner, Control (non-injected, n=1), no signal is observed.

eye [7] = details: mouse, in vivo
Experimental: Given the extensive time that OTL38 remained in the eyes, signal in the presence of the folate competitor folate-glucosamine (Fol-Glc) was tested. Healthy, wild-type mice were injected with 10 nmols OTL38. Some mice were subsequently injected with Fol-Glc. All mice were subsequently sacrificed and examined in comparison to noninjected mice.

eye [8] = details: rat, in vivo
Experimental: An adult male Sprague Dawley rat was intravenously injected with OTL38 and imaged 24 hours later. […] Red and green colors indicate signal from the dye, with red showing the most intense regions.

Compound | NIR signal in the spinal cords [1] | NIR signal in the spinal cords, injected simultaneously with Fol-Glu ([2]; OTL38+Fol-Glu on day 7 after injury, imaged day 8) | NIR signal in the spinal cords ([2]; injected day 7 after injury, spinal cords imaged day 8) | NIR signal in the blood relative to that of the CSF ([3]; four hours post-injection and all subsequent timepoints) | NIR signal in the blood relative to that of the CSF ([3]; two hours post-injection, blood exceeded CSF) | NIR signal at the CCI injury [4] | NIR signal around the choroid plexus [5] | NIR signal at the cortex injury ([5]; uninjured right hemisphere no signal) | Mean fluorescence intensity, epicenter vs rostral region ([1]; SCI rat, transverse spinal cord sections, students t-test **p<0.01) | NIR signal in the choroid plexus, co-injected with Fol-Glu ([6]; mice co-injected with OTL38 and folate-glucosamine conjugate (Fol-Glu), competitor for folate receptors) | NIR signal in the choroid plexus ([6]; mice, intravenous tail injection, 24 hours after injection) | OTL38 signal (mean fluorescence intensity) in eyes after administration of Fol-Glc (eye [7]) | Uptake in the retina, eye slices (eye [8]) | NIR signal at the eye, live imaging (eye [8]; iv)
CC1(C)C(/C=C/C2=C(Cl)C(=C/C=C3/N(CCCCS(=O)(=O)[O-])c4ccc(S(=O)(=O)[O-])cc4C3(C)C)/CCC2)=[N+](CCCCS(=O)(=O)[O-])c2ccc(S(=O)(=O)[O-])cc21.[Na+].[Na+].[Na+] [unconjugated NIR dye] | lack of signal | – | – | – | – | – | – | – | – | – | – | – | – | –
OTL38 | Signal was observed | lack of signal | Strong signal | dropped and remained lower than that of the CSF | nearly two-fold | positive targeting of the 6 mm circular injury | Increased signal around the choroid plexus | enhanced signal around the injury area | significant increase in signal in the epicenter as compared to the rostral region | noticeable reduction in signal | Strong signal | reduced | strong OTL38 uptake in the area of the retina | intense red signal at the eye
